Test results as given in patent US20040259194A1.
“And” between values parts separate entries of the source, which are not always exact repeats. Equal entries are not always repeated.

Molecular target: melanin-concentrating hormone receptor 1 (MCHR1) from I3.4.2 cells (human) (UniProt Q99705)
Test: cell-based or functional assay

Chain of melanin-concentrating hormone receptor 1 (MCHR1) from I3.4.2 cells (human) (Q99705 whole entry): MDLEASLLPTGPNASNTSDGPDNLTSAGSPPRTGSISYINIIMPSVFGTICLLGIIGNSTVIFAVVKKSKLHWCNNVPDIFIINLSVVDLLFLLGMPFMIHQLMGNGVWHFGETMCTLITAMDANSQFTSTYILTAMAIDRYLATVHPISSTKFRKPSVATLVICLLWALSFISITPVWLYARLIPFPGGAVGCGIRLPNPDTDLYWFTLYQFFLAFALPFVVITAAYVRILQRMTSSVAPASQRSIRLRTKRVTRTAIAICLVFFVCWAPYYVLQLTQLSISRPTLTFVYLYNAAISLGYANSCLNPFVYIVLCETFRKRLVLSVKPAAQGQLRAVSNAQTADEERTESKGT

Ca++ response to 1 uM MCH, relative fluorescence units (FLIPR), baseline approximately 700 RFU: 5000 RFU and 6000 RFU
EC50 for MCH-mediated Ca++-mobilization (fluorometric imaging plate reader) on I3.4.2 cells: 90 nM
EC50 for receptor activation, Ca++-mobilization assay (FLIPR) on T42402I3.4.2 cells: 80 nM
Substance: melanin-concentrating hormone (MCH) (from UniProt P20382 147-165) (peptide)
